Experimental data as given in patent publication US20210238276A1 (INTEGRAL MOLECULAR, published 2021).

Tests used:
Test in all cases: flow cytometry, alanine-scan library in HEK-293T, with cytochalasin B
hsGLUT4 I163A = biological target: T1, hsGLUT4 I163A (human, UniProt P14672 1-509)
T1 sequence: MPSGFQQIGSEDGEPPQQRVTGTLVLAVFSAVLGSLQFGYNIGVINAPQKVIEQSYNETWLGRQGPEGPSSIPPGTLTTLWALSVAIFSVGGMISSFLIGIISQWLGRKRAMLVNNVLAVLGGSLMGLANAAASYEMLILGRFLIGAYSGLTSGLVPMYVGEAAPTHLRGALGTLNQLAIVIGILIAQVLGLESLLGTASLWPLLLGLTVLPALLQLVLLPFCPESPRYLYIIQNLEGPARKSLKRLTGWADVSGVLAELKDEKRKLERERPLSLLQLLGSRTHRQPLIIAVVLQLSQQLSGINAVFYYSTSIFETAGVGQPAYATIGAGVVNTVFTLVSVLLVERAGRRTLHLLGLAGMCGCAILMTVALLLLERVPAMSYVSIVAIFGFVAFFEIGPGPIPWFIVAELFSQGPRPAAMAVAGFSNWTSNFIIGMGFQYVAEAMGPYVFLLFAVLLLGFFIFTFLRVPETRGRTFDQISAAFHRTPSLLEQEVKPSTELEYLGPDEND
Summary of the method: (§1)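 HEK-293T cells expressing individual GLUT4 alanine mutants were stained 48 h post-transfection with anti-GLUT4 scFv MAbs (2 μg/ml), then biotinylated secondary and streptavidin-PerCP, and read by high-throughput flow cytometry. Where used, cytochalasin B (10 uM final) was given for 30 min before and during primary antibody staining.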

hsGLUT4 L260A = biological target: T2, hsGLUT4 L260A (human, UniProt P14672 1-509)
T2 sequence: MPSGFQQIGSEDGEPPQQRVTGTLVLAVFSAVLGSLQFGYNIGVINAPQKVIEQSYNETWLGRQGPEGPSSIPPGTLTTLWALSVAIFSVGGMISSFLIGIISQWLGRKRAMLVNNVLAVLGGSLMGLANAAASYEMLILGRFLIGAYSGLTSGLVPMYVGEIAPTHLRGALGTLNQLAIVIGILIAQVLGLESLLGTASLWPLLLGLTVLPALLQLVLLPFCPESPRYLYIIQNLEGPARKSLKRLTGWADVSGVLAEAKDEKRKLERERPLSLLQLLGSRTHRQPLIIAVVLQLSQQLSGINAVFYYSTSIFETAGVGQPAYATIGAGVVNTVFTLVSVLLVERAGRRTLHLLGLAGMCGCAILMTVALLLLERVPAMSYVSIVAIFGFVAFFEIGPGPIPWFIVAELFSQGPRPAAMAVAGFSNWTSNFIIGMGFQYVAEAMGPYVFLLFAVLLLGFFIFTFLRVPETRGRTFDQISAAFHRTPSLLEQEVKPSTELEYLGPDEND
Summary of the method: as §1

hsGLUT4 V306A = biological target: T3, hsGLUT4 V306A (human, UniProt P14672 1-509)
T3 sequence: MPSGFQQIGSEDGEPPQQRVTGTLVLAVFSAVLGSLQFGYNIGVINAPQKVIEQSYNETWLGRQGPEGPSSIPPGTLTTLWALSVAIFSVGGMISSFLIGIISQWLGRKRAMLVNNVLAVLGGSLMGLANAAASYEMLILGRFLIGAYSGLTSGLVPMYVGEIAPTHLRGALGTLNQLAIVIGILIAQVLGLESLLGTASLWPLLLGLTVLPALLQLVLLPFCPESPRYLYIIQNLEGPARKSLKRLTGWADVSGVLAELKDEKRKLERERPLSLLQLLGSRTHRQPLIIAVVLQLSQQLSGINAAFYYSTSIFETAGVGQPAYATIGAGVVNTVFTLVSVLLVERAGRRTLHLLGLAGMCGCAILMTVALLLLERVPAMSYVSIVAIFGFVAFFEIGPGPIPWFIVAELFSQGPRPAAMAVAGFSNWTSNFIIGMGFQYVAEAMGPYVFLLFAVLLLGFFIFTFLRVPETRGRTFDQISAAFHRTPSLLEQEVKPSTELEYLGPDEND
Summary of the method: as §1

hsGLUT4 S310A = biological target: T4, hsGLUT4 S310A (human, UniProt P14672 1-509)
T4 sequence: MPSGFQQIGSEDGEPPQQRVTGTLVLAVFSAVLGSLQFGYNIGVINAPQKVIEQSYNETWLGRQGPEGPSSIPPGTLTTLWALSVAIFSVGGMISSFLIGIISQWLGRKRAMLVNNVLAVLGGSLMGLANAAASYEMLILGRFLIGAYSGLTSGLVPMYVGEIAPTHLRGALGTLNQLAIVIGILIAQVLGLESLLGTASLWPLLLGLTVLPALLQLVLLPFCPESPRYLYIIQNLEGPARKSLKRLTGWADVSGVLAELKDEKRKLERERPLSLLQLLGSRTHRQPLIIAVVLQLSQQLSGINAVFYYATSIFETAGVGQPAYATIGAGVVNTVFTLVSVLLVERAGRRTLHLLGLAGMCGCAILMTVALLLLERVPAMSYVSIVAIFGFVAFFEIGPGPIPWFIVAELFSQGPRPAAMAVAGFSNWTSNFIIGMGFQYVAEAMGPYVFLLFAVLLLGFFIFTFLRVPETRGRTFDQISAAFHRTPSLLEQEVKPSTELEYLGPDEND
Summary of the method: as §1

B1: AB102 (Fc fusion)
scFv: ALTQPSSVSANLGGTVKITCSGGGSYGYGWYQQKSPGSAPVTVIYSNDQRPSDIPSRFSGSKSGSTATLTITGVRAEDEAIYYCGSTDSDYVGIFGAGTTLTVLGQSSRSSGGGGSSGGGGSAVTLDESGGGLQTPGGTLSLVCKASGFDFSSYATIWVRQAPGKGLEWVAGISGTGTGSSTGYAPAVKGRATISRDNGQSTVRLQLNNLRAEDTGSYFCAKSTGYGDSWIYPDSIDAWGHGTEVIVSS
notes: also called MAb AB102; not shown: Fc fragment of human IgG1, cloned in frame with the scFv
- % of binding to wild type GLUT4 (hsGLUT4 I163A): 28%
- % of binding to wild type GLUT4 (hsGLUT4 L260A): 42%
- % of binding to wild type GLUT4 (hsGLUT4 V306A): 29%
- % of binding to wild type GLUT4 (hsGLUT4 S310A): 20%
